The target in test [1] is T1, TrkA (Homo sapiens, UniProt P04629).
T1 construct: expressed in transfected cells; host or cells: Sf9 insect cells infected with recombinant baculoviruses
Nature of the test: In vitro association of SHP with baculovirus-expressed TrkA. The class given is binding. The settings on record: autophosphorylated TrkA, insect cells. The protocol:
(§1) FIG. 7 is a Western blot showing that SHP-1 associates with baculovirus-expressed TrkA, TrkB and TrkC. TrkA, B and C were activated and autophosphorylated in vitro, incubated with PC12 cell lysates, fractionated by electrophoresis, and probed with anti-SHP-1 (bottom panel), and anti-pan Trk antibodies (upper panel).
Wild-type and mutant TrkA receptors expressed in Sf9 cells were autophosphorylated, incubated with PC12 lysates and immunoblotted with anti-SHP-2.
The in vitro association assay using baculovirus-expressed proteins was performed as described (Kaplan et al., supra). Briefly, Sf9 cells (2×10^6) were infected, harvested, and lysed in NP-40 lysis buffer. Trk proteins were immunoprecipitated with anti-Trk (203) antibody, and the immunoprecipitates were washed once with lysis buffer containing 1% deoxycholate and 0.1% SDS (RIPA), and three times with 50 mM Tris (pH 7.4). Trks then were activated (i.e. autophosphorylated) by incubation with 50 mM Tris (pH 7.4), 5 mM Mn Cl2, 1 mM ATP and 200 μM orthovanadate. Trk proteins then were washed twice with NP40 lysis buffer and were resuspended in 1 ml of PC12 cell lysate. The immunoprecipitated, activated Trk complexes were incubated with the cell lysate for 3 hr at 4° C., and then washed three times with NP-40 lysis buffer and once with 10 mM Tris (pH 7.4) before immunoblot analysis. […]

The target in a further test is T2, TrkC (Homo sapiens, UniProt Q16288).
T2 construct: made in house; host or cells: Sf9 insect cells (recombinant baculovirus)
Nature of the test: In vitro association of SHP with baculovirus-expressed TrkC. The class given is binding. The settings on record: autophosphorylated TrkC, insect cells. On the procedure: as §1
(§2) The in vitro association assay using baculovirus-expressed proteins was performed as described (Kaplan et al., supra). Briefly, Sf9 cells (2×10^6) were infected, harvested, and lysed in NP-40 lysis buffer. Trk proteins were immunoprecipitated with anti-Trk (203) antibody, and the immunoprecipitates were washed once with lysis buffer containing 1% deoxycholate and 0.1% SDS (RIPA), and three times with 50 mM Tris (pH 7.4). Trks then were activated (i.e. autophosphorylated) by incubation with 50 mM Tris (pH 7.4), 5 mM Mn Cl2, 1 mM ATP and 200 μM orthovanadate. Trk proteins then were washed twice with NP40 lysis buffer and were resuspended in 1 ml of PC12 cell lysate. The immunoprecipitated, activated Trk complexes were incubated with the cell lysate for 3 hr at 4° C., and then washed three times with NP-40 lysis buffer and once with 10 mM Tris (pH 7.4) before immunoblot analysis.
(§3) To investigate the mechanism whereby SHP inhibits NGF-induced signaling responses, we first asked whether the SHPs bound to Trk. […]

The target of a further test is T3, TrkB (Homo sapiens, UniProt Q16620).
T3 construct: made in house; host or cells: Sf9 insect cells (recombinant baculovirus)
Nature of the test: In vitro association of SHP with baculovirus-expressed TrkB. The class given is binding. Conditions: autophosphorylated TrkB, insect cells. On the procedure:
as §1, §2, §3

The next test has as its target T4, Trk (Homo sapiens, UniProt P04629).
T4 construct: made in house; host or cells: Sf9 insect cells (recombinant baculovirus)
Nature of the test: In vitro dephosphorylation of autophosphorylated 32P-labeled Trk by partially purified SHP. The class given is biochemical. The settings on record: 20 minutes at 30° C. The protocol:
FIG. 10 is an autoradiogram showing that SHP-1 and SHP-2 dephosphorylate Trk in vitro. Trk, SHP-1 and SHP-2 were expressed in Sf9 insect cells and isolated by immunoprecipitation with anti-Trk, anti-SHP-1 or anti-SHP-2 antibody. Immunoprecipitated Trk was autophosphorylated with [y-^32P]ATP and then was incubated with partially purified SHP-1 or SHP-2. Trk phosphorylation levels then were analyzed by SDS/PAGE and autoradiography.
We hypothesized that the suppressive effects of SHP upon NGF-mediated survival might be due to dephosphorylation of the autophosphorylated Trk receptor. Given that SHP-1 can bind to activated Trk and that SHP-2 is activated by Trk (see Example II), we sought to determine whether the SHPs could dephosphorylate TrkA in vitro and in vivo. Trk, SHP-1, and SHP-2 were expressed in Sf9 cells and isolated by immunoprecipitation with anti-Trk, anti-SHP-1, or anti-SHP-2 antibodies. Immunoprecipitated Trk was autophosphorylated by incubating with 10 mM MnCl2, 20 mM Tris pH 7.4 and 2.0 μCi/ml [γ-^32P]-ATP(3000 Ci/mmol) for 30 minutes at room temperature. Activated, radiolabeled Trk then was incubated with partially purified SHP-1 or SHP-2 for 20 minutes at 30° C. In vitro, both SHP-1 and SHP-2 are able to dephosphorylate Trk to a similar extent (FIG. 10) i.e., approximately 5-fold dephosphorylation. […]

Test [2] has as its system TrkA. Nature of the test: Trk dephosphorylation on coexpression with SHP in Sf9 insect cells. In kind it is cell-based. The settings on record: coexpressed in insect cells, anti-pTyr blot. An excerpt:
(§4) FIG. 11 is a Western blot showing that Y490 and Y785 of TrkA are not required for SHP-1 and SHP-2-mediated dephosphorylation of TrkA in vivo. Lysates of Sf9 insect cells coexpressing SHP-1 or SHP-2 wild-type and mutant TrkAs, as indicated, were immunoprecipitated with anti-Trk and probed with anti-pTyr antibody (upper panel) to determine TrkA phosphorylation levels.
(§5) FIG. 12 is a Western blot showing that Y674/Y675 of TrkA are targets of SHP-1 and SHP-2-mediated dephosphorylation. Lysates of Sf9 insect cells co-expressing SHP-1 or SHP-2 and wild-type TrkA using antibodies that specifically recognize these phosphorylated residues. Blots were probed with anti-pan Trk (C,D), anti-SHP-1 (E,F), or anti-SHP2 (G,H) antibodies.
(§6) Sf9 insect cells (2×10^6) were infected with recombinant baculoviruses at a multiplicity of infection of 1 to 10 and lysed at 48 hr postinfection. Sf9 cells were assayed for the expression of the recombinant proteins by immunoblot analysis, as described above. Recombinant baculoviruses were prepared as previously described (Stephens et al., Neuron, 12:691-705, (1994).
(§7) We hypothesized that the suppressive effects of SHP upon NGF-mediated survival might be due to dephosphorylation of the autophosphorylated Trk receptor. Given that SHP-1 can bind to activated Trk and that SHP-2 is activated by Trk (see Example II), we sought to determine whether the SHPs could dephosphorylate TrkA in vitro and in vivo. Trk, SHP-1, and SHP-2 were expressed in Sf9 cells and isolated by immunoprecipitation with anti-Trk, anti-SHP-1, or anti-SHP-2 antibodies. Immunoprecipitated Trk was autophosphorylated by incubating with 10 mM MnCl2, 20 mM Tris pH 7.4 and 2.0 μCi/ml [γ-^32P]-ATP(3000 Ci/mmol) for 30 minutes at room temperature. Activated, radiolabeled Trk then was incubated with partially purified SHP-1 or SHP-2 for 20 minutes at 30° C. In vitro, both SHP-1 and SHP-2 are able to dephosphorylate Trk to a similar extent (FIG. 10) i.e., approximately 5-fold dephosphorylation. Moreover, coexpression of Trk with SHP-1 or SHP-2 in insect cells results in Trk dephosphorylation. In vivo, both SHP-1 and SHP-2 reduce Trk tyrosine phosphorylation, even when the receptors lack tyrosine 490 (Y490F) and/or tyrosine 785 (Y785F) (FIGS. 11 and 12).
(§8) In order to map the sites of dephosphorylation two approaches were taken. First, we asked whether Trks mutated at tyrosines 490 and 785 could be dephosphorylated by SHP-1 or SHP-2 when coexpressed in insect cells (FIG. 11). SHP-1 extensively dephosphorylates (about 8-fold) all of the Trks, both wild-type and mutated, whereas SHP-2 causes a more modest dephosphorylation (about 2-fold). […] To determine whether the two other major tyrosine phosphorylation sites in Trk, Y674 and 675, are substrates of the SHPs, wild-type TrkA and the SHPs were coexpressed in insect cells, and Trk phosphorylation at Y674, Y675 and Y490 was assessed using phospho-specific anti-Trk antibodies directed at tyrosines 674/675 and 490. SHP-1 completely dephosphorylates Trk (about 10-fold) at the 674/675 sites, while SHP-2 partially dephosphorylates Trk (about 2-fold) at these sites. Tyrosine phosphorylation of the Y490 site also is decreased by SHP-1. […] Since SHP-2 expression stimulates sympathetic neuron death (FIG. 6), we conclude that SHP functions by associating with neurotrophin-activated Trk, dephosphorylating the receptor at sites crucial for maintaining Trk activity, and thereby suppressing neuronal survival.

Test [3] has as its target T1, TrkA. The test is described as above. In kind it is cell-based. The settings on record: wild-type TrkA coexpressed in insect cells; for dephosphorylation of Trk at the 674/675 sites: phospho-specific anti-Trk antibodies.
From the text: as §4, §5, §6, §7, §8

The test system of test [4] is SHP-2. Nature of the test: NGF-stimulated association of SHP-2 with tyrosine-phosphorylated proteins in SCG neurons. The class given is cell-based, rat. Conditions: NGF-treated SCG cultures. An excerpt:
FIG. 4 is a Western blot showing that NGF stimulates an increased association of tyrosine-phosphorylated proteins with SHP-2 in SCG neurons. Lysates prepared from neurotrophin-treated SCGs were immunoprecipitated with anti-SHP-2 antibody and immunoblotted with anti-pTyr. Lanes 1 and 2: NGF-stimulated association of tyrosine-phosphorylated proteins with SHP-2. Lanes 3 and 4: NGF-stimulated increase in tyrosine phosphorylation of SCG proteins.
To determine the mechanism whereby the neutrotrophins stimulate the survival and growth of normal and injured neurons, we have asked whether the phosphoprotein phosphatases SHP-1 and SHP-2 play a role in the differentiation and survival of primary neurons, focusing our studies on cultured rat sympathetic cervical ganglion (SCG) and cortical neurons in order to determine the exact nature of this regulation.
Immunoprecipitations and immunoblotting were performed as previously described (Kaplan et al., Science, 252:554-558, 1991). […]

In test [5] the test system is SHP-2. Nature of the test: NGF-stimulated association of SHP-2 with tyrosine-phosphorylated proteins in PC12 cells. In kind it is cell-based. The settings on record: proteins of 50 to 125 kDa. The protocol: FIG. 3 is a Western blot showing that NGF stimulates the association of SHP-2 with tyrosine-phosphorylated proteins in PC12 cells. Lysates prepared from PC12 cells treated with NGF for the indicated times were immunoprecipitated with anti-SHP-2 and probed with anti-pTyr antibodies.
(§9) Immunoprecipitations and immunoblotting were performed as previously described (Kaplan et al., Science, 252:554-558, 1991). Briefly, after two washes with ice-cold Tris-buffered saline, cells were lysed in 1 ml of 1% Nonidet P-40 (NP-40 lysis buffer (20 mM Tris [pH8.0], 137 mM NaCl, 0.5 mM EDTA, 10% glycerol, 1 mM phenylmethylsulphonyl fluoride, 0.15 U/ml aprotinin, 20 μM leupeptin, 1 mM sodium vanadate) at 4° C. for 20 min. Insoluble material was removed by centrifugation at 4° C. for 10 min at 10,000× g. Immunoprecipitations were performed for 4-6 hr at 4° C. Precipitates were collected with protein A-Sepharose, then washed three times with NP-40 lysis buffer and once with water. The immunoprecipitates were boiled in sample buffer (2% SDS, 100 mM dithiothreitol, 10% glycerol, 0.25% bromophenol blue) for 5 min and electrophoretically fractionated by SDS-PAGE. Protein blots were probed overnight at 4° C. with antibody. […]

Another test has as its system SHP-1. Nature of the test: NGF-stimulated tyrosine phosphorylation of SHP-1 (immunoprecipitation with anti-SHP-1, anti-pTyr blot). In kind it is cell-based. Conditions: PC12 cells; increased at 10 minutes, still elevated at 30 minutes of neurotrophin treatment. The protocol: FIG. 2 is a Western blot showing that NGF stimulates tyrosine phosphorylation of SHP-1 in PC12 cells. Lysates prepared from cells treated with NGF were immunoprecipitated with anti-SHP-1 and probed with an anti-phosphotyrosine (pTyr) antibody (top panel).
as §9

T1 sequence (P04629 33-790 isoform P04629-2): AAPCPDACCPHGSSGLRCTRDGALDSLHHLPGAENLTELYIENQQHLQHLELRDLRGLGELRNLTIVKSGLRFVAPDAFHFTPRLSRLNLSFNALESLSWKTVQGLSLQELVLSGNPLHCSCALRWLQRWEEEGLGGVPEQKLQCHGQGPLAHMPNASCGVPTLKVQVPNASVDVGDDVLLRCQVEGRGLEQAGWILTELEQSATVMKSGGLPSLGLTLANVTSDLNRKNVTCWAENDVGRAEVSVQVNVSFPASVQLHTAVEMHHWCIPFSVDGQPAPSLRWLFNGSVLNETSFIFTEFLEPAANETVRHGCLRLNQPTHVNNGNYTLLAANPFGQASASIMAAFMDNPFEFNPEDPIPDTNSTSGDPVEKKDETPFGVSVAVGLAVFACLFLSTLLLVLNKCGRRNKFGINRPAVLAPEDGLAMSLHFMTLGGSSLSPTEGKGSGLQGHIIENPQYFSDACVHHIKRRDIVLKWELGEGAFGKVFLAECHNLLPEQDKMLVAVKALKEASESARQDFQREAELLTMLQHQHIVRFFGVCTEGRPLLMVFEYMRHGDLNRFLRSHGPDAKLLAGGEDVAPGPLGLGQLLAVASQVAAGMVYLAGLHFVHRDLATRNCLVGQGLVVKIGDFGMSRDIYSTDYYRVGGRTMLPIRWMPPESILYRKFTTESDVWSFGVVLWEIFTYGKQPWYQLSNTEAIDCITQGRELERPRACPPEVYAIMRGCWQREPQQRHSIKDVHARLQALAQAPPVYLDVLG
T4 sequence (P04629 33-790 isoform P04629-2 limits assumed): as the sequence (P04629 33-790 isoform P04629-2) above
T2 sequence (Q16288 32-839, species assumed): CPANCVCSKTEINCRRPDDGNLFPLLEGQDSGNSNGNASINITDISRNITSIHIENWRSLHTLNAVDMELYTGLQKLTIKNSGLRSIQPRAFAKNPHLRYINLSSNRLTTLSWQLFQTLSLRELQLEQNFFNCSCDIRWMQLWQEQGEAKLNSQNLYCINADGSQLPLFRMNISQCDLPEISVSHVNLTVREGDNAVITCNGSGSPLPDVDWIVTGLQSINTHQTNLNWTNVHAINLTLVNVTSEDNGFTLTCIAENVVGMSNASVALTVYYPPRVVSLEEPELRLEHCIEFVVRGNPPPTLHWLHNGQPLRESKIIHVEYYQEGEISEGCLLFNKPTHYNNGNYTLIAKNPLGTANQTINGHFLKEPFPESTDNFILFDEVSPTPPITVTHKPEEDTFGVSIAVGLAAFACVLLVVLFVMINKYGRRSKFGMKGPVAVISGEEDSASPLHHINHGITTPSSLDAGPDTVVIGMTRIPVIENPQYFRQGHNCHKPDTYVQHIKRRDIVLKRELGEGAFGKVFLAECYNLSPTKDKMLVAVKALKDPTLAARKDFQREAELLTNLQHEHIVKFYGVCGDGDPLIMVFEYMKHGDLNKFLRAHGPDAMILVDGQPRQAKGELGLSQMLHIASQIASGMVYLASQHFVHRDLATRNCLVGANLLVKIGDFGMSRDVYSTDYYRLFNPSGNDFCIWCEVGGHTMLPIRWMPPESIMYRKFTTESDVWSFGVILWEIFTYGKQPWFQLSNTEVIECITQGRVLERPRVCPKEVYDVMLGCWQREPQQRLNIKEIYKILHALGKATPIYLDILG
T3 sequence (Q16620 32-822, species assumed): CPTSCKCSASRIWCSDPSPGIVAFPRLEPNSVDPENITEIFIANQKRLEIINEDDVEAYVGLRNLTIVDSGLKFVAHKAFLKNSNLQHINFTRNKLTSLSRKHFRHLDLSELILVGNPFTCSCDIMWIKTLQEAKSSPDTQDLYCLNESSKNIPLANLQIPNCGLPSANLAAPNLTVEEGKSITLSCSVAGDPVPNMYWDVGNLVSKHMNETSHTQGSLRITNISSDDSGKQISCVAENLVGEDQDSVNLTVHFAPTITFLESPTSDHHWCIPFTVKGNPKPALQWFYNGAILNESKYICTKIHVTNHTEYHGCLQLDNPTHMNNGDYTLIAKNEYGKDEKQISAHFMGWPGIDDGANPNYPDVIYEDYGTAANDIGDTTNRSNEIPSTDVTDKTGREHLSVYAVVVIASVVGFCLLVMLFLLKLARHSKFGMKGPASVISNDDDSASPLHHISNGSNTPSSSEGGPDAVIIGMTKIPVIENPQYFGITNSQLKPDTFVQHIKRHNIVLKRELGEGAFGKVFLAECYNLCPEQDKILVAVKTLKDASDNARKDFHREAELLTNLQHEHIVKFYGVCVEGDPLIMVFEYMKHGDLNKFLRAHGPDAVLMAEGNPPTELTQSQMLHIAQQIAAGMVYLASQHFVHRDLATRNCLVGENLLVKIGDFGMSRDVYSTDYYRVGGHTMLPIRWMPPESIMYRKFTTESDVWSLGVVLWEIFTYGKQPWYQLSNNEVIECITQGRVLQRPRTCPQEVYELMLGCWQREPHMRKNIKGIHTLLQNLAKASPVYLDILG

Turning to “SHP-1: nontransmembrane protein-tyrosine phosphatase containing SH2 domains, GenBank Accession Number M77273”, the “binding to activated Trk” value with TrkA [1] was “binds to activated (i.e. autophosphorylated) TrkA, TrkB and TrkC”; with TrkC it was “binds to activated (i.e. autophosphorylated) TrkA, TrkB and TrkC”; in the test with TrkB, “binds to activated (i.e. autophosphorylated) TrkA, TrkB and TrkC”. Moreover, the “dephosphorylation of Trk in vitro” value with Trk was “approximately 5 fold”. Besides, the “dephosphorylation of Trks, wild-type and mutated at tyrosines 490 and 785” value in the test with TrkA [2] is “about 8 fold”. Also, in the test with TrkA [3], the “dephosphorylation of Trk at the 674/675 sites” value is reported as “about 10 fold”. In addition, the “tyrosine phosphorylation of the Y490 site” value in the test with TrkA [3] (phospho-specific anti-Trk antibody) is recorded as “decreased”.

In the case of “SHP-2: nontransmembrane protein-tyrosine phosphatase containing SH2 domains, GenBank Accession Number L03535”, in the test with TrkA [1], the “binding to activated Trk” value was “unable to bind to Trk”. In the test with Trk, the “dephosphorylation of Trk in vitro” value is reported as “approximately 5 fold”. The “dephosphorylation of Trks, wild-type and mutated at tyrosines 490 and 785” value in the test with TrkA [2] is “about 2 fold”. Further, the “dephosphorylation of Trk at the 674/675 sites” value with TrkA [3] is recorded as “about 2 fold”.

With “NGF: prototypical neurotrophin, Nerve Growth Factor, obtained from Peprotech”, the “association of SHP-2 with tyrosine phosphorylated proteins” value was “SHP-2 could be seen to associate with at least five tyrosine phosphorylated proteins” in the test on SHP-2 [4] and “stimulates the association of SHP-2 with a number of tyrosine phosphorylated proteins” in the test on SHP-2 [5]. In addition, the “tyrosine phosphorylation of SHP-1” value in the test with SHP-1 is “stimulates an increase in the tyrosine phosphorylation of SHP-1”.

The values are drawn from patent US20020110800A1, “Use of SHP-1 and SHP-2 to detect compounds involved in neuronal survival” (McGill University, priority 1997, published 2002).
